Results from the nanobody polyreactivity screen of Harvey et al. (2022).

Test: yeast display, Sf9 membrane polyspecificity reagent, FACS + sequencing; frameworks hold sequencing errors
Procedure, shortened: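 Polyreactivity labels are assigned by the sorting gate from which each nanobody was recovered. The gates were low and high (top ~1%), set on anti-HA fluorescence for expression and streptavidin fluorescence for reagent binding. Before sorting, galactose-induced (36–48 hours) yeast display cells were stained for 1 hour at 4 °C with 10% biotinylated, detergent-solubilized Sf9 membrane reagent.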

Sequence	polyreactivity (PSR sort gate)
QVQLVESGGGLVQAGGSLRLSCAASGITFVRNAMGWYRQAPGKEREFVAAISWSGGSTYYADSVKGRFTISRDNAKNTVYLQMNSLKPEDTAVYYCAKRSRGVKYDYWGQGTQVTVSS	high polyreactivity
QVQLVESGGGLVQAGGSLRLSCAASGITFVRNAMGWYRQAPGKERELVAAITSRGGITYYADSVKGRFTISRDNAKNTVYLQMNSLKPEDTAVYYCNKTRGYAVNGYNYWGQGTQVTVSS	high polyreactivity
QVQLVESGGGLVQAGGSLRLSCAASGITFVRYAMGWYRQAPGKEREFVAAINSIVGRTYYADSVKGRFTISRDNAKNTVYLQMNSLKPEDTAVYYCAADSNVRYGMDYWGQGTQVTVSS	low polyreactivity
QVQLVESGGGLVQAGGSLRLSCAASGITFVRYAMGWYRQAPGKERELVAAISSGGSTHYADSVKGRFTISRDNAKNTVYLQMNSLKPEDTAVYYCAAQWTESSLYRFGYWGQGTQVTVSS	high polyreactivity
QVQLVESGGGLVQAGGSLRLSCAASGITFVSYTMGWYRQAPGKERELVAAISTSGGSTYYADSVKGRFTISRDNAKNTVYLQMNSLKPEDTAVYYCAARQVRTIRKYGYWGQGTQVTVSS	high polyreactivity
QVQLVESGGGLVQAGGSLRLSCAASGITFVTYAMGWYRQAPGKEREFVASINWITGNTYYADSVKGRFTISRDNAKNTVYLQMNSLKPEDTAVYYCATVDWSLYLGTPPSYYWGQGTQVTVSS	low polyreactivity
QVQLVESGGGLVQAGGSLRLSCAASGITFVTYAMGWYRQAPGKERELVAAISRSGGRTYYADSVKGRFTISRDNAKNTVYLQMNSLKPEDTAVYYCAAERKNKYDYWGQGTQVTVSS	high polyreactivity
QVQLVESGGGLVQAGGSLRLSCAASGITFVYYAMGWYRQAPGKDRELVAAITSTGGSTYYADSVKGRFTISRDNAKNTVYLQMNSLKPEDTAVYYCAAVPRGTQGAMDYWGQGTQVTVSS	low polyreactivity
QVQLVESGGGLVQAGGSLRLSCAASGITFVYYAMGWYRQAPGKERELVAAISKNGGSTYYADSVKGRFTISRDNAKNTVYLQMNSLKPEDTAVYYCAAEEGYRWVRYNYWGQGTQVTVSS	high polyreactivity
QVQLVESGGGLVQAGGSLRLSCAASGITFVYYAMRSYRQAPGKERELVAAITRSGDSTYYADSVKGRFTISRDNAKNTVYLQMNSLKPEDSAVYYCAAESYYSTYQVEYYYWGQGTQVTVSS	high polyreactivity
QVQLVESGGGLVQAGGSLRLSCAASGITFWANAMGWERQAPGKERELVASIRSSGGSTYYADSVKGRFTISRDNAKNTVYLQMYSLKPEDTAVYYCYAKRTGPWFLHVPVYYWGQGTQVTVSS	low polyreactivity
QVQLVESGGGLVQAGGSLRLSCAASGITFWLYAMGWYRQAPGKERELVAAISYSGGSTYYADSVKGRFTISRDNAKNTVYLQMNSLKPEETEVYYCNTGSRYRPNRRYGYWGQGTQVTVSS	high polyreactivity
QVQLVESGGGLVQAGGSLRLSCAASGITFWNNAKGWYRQAPGKEREFVATISSNGGRTYYADSVKGRFTISRDNAKNTVYLQMNSLKPEDNAVYYCNAARRAYGYNYWGQGTQVTVSS	low polyreactivity
QVQLVESGGGLVQAGGSLRLSCAASGITFWPYALGWYRPAPGKERELVAAIRASVGRTYYADSVKGRFTISRDNAKNTVYLQMNSLKPEDTAVYYCNAYGRYGKFRVEYDYWGQGTQVTVSS	low polyreactivity
QVQLVESGGGLVQAGGSLRLSCAASGITFWRNAMGWYRQAPGKESELVAAISWSVGRTYYADSVKGRFTISRDNAKNTVYLQMNSLKPEDTAFYYCIARWRSGPRAYDYWGQGTQVSVSS	high polyreactivity
QVQLVESGGGLVQAGGSLRLSCAASGITFWRTAMGWYRQAPGKEREFVAAITWTGGRTYYADSVKGRFTISRDNAQNTVYLQMNSLKPEDTAVYYCATGQSRDYYWGQGTQGTVSS	high polyreactivity

Sequence	polyreactivity (PSR sort gate)
QVQLVESGGGLVQAGGSLRLSCAASGITFWTYAMGWYRQAPGKERELVAAISKSGGSTYYADSVKGRFTISRDNAKNTVYLQMNSLKPEDTAVYYCAAKGLRYRDIDYDYWGQGTQVTVSS	low polyreactivity
QVQLVESGGGLVQAGGSLRLSCAASGITFWWYAMGWYRQAPGKERELVAAITGGGSTNYADSVKGRFTISRDNAKNTVYLQMNSLKPEDTAVYYCAATGSPARNWDTVTGYYYWGQGTQVTVSS	low polyreactivity
QVQLVESGGGLVQAGGSLRLSCAASGITFYDYTMVWYRQAPGKESELVAVITSAGSTYYADSVKGRFTISRDNAKNTVYLQMNSLKPEDTAVYYCAAVIVSRGRKYRLDYWGQGTQVTVSS	high polyreactivity
QVQLVESGGGLVQAGGSLRLSCAASGITFYEYAMGCYRQAPGTERDFVAAIDHGDSSTYYADSVKGRFTISRDNAKNTVYLQMNSLKPEDTAVYYCNADPYYDYSLNWGDYWGQGTQVTVSS	low polyreactivity
QVQLVESGGGLVQAGGSLRLSCAASGITFYFNAIGWYRQAPGKDRELVAAIAWPGGSTYYADSVKGRFTISRDNAKHTVFLQMNSLKPEDTAVYYCNGVFRYWYADSWFGAYDYWGQGTQVTVSS	high polyreactivity
QVQLVESGGGLVQAGGSLRLSCAASGITFYFNAMGWYRQAPGKEREMVAAISWPGGSTYYADSVKGRFTISRDNAKNTVYLQMNRLKPEDTAVYYCAAEAYFELSGGGLEYGYDYWGQGTQVTVSS	high polyreactivity
QVQLVESGGGLVQAGGSLRLSCAASGITFYFYAMGWYRQAPWKERELVAAITSTGTSTYYADSVKGRFTISRDNAKNTVYLQMNILKPEDTAVYYCNVTDYHTLWYDPEYYWGQGTQVTVSS	low polyreactivity
QVQLVESGGGLVQAGGSLRLSCAASGITFYGNAMGWYRQAPGKERELVAGIRSSGGDTYYADSVKGRFTISRDNAKNTVYLQMNSLKPEDTAVYYCAADFDWFIWGYDYWGQGTQVTVSS	low polyreactivity
QVQLVESGGGLVQAGGSLRLSCAASGITFYGNAMGWYRQAPGNERELVAAITFSGGITYYADSVKGRFTISRDNAKNTVYLQMNSLKPEDTAVYDCATDPIGGWTRPQRYGDDYWGQGTQVTVSS	low polyreactivity
QVQLVESGGGLVQAGGSLRLSCAASGITFYGYAMGWYIQAPGKERELVASITSTGSTNYADSVKGRFTISRDNAKNTVYLQMNSLKPEDTAVYYCAARYREVYRSKRKLGYWGQGTQVTVSS	high polyreactivity
QVQLVESGGGLVQAGGSLRLSCAASGITFYGYAMGWYRQAPGKEREFVATISKSGGITSYADSVKGRFTISRDNAKNTVYLQMNSLKPEDTAVYYCNRGKRYGGYDYWGQGSQVTVSS	low polyreactivity
QVQLVESGGGLVQAGGSLRLSCAASGITFYGYAMGWYRQAPGKERELVAAISKRGGSTYYADSVKGRFTISRDNAKNTVYLQMNSLKPEDTAVYYCNARPGKSQGWRYDYWGQGTQVTVSS	high polyreactivity
QVQLVESGGGLVQAGGSLRLSCAASGITFYGYAMGWYRQAPGKERELVAAISKSGGSTHYADSVKGRFTISRDNAKNTVYLQMNSLKPEDTAVYYCATEGYYYYTSYDYWGQGTQVTVSS	low polyreactivity
QVQLVESGGGLVQAGGSLRLSCAASGITFYGYAMGWYRQAPGKERELVATISSGGGTNYADSVKGRFTISRDNAKNTVYLQMNSLKPEDTAVYYCATDLSTVDYNYWGQGTQVTVSS	low polyreactivity
QVQLVESGGGLVQAGGSLRLSCAASGITFYGYDMGWFRQAPGKERELVASSTYYADSVKGRFTISRDNAKNTVYLQMNSLKPEDTAVYYCITVYYQWVTYGYWGQGTQVTVSS	high polyreactivity
QVQLVESGGGLVQAGGSLRLSCAASGITFYGYDMGWYIQAPGKERELVAAISRSGGSTYYADSVKGRFTISRDNAKNTVYLQMNSLKPEDTAVYYCAADKQGYRGRTPYRYYSWGQGTQVTVSS	high polyreactivity
